In patent US20190233494A1 (Sanofi, published 2019):
Starred links: 1 amine or outer side, 2 acyl side, 3 side chain; linkers in the order of their positions; H or OH if unused. Non-standard residues stand in square brackets, D forms with d. Groups on a side chain read outwards from the residue. *: point of attachment. TTDS = 4-[3-[2-[2-(3-aminopropoxy)ethoxy]ethoxy]propylamino]-4-oxo-butanoyl; Trp(5-F) = N[C@@H](Cc1c[nH]c2ccc(F)cc12)C(=O)O; Phe(4-F) = N[C@@H](Cc1ccc(F)cc1)C(=O)O; γGlu = O=C(O)[C@H](CCC(=O)[*:2])N[*:1]; Palmitoyl = CCCCCCCCCCCCCCCC(=O)*; αMeF = C[C@](N)(Cc1ccccc1)C(=O)O; Myristoyl = CCCCCCCCCCCCCC(=O)*; Cit = NC(=O)NCCC[C@H](N)C(=O)O; αMeK = C[C@](N)(CCCCN)C(=O)O; hLys = NCCCCC[C@H](N)C(=O)O; AEEA = NCCOCCOCC(=O)O; Aib = CC(C)(N)C(=O)O

T1: RXFP1 receptor (endogenous, on OVCAR5 cells) (UniProt Q9HBX9 1-757, limits assumed)
T1 sequence (looked up): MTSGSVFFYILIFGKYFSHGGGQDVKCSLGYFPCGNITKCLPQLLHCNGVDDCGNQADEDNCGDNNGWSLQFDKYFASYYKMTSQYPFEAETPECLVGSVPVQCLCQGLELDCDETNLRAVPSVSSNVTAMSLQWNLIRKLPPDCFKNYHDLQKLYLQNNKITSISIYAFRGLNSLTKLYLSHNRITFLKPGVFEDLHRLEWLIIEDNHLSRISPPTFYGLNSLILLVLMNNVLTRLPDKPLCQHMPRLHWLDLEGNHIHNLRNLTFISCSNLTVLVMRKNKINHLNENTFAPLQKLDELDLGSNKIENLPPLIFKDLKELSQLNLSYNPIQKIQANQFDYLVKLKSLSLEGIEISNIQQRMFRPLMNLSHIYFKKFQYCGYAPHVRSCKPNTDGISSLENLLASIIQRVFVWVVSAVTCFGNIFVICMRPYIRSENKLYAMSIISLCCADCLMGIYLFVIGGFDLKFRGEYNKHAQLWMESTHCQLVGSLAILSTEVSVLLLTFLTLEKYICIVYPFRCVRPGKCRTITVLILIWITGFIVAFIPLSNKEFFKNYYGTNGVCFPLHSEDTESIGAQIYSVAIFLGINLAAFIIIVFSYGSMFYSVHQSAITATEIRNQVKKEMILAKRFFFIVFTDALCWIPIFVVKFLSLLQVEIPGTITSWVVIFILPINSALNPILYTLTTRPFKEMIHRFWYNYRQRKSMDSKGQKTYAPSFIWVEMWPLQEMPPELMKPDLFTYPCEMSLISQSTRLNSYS

B1: peptide of SEQ ID NO: 8 (peptide)
peptide: Ac-LEGREKVRAK(Ac)I[Aib][Aib]EGK([AEEA-AEEA-AEEA-AEEA-γGlu-γGlu-γGlu-Palmitoyl])STFS[αMeK]RAK(Ac)-NH2
SMILES: CCCCCCCCCCCCCCCC(=O)N[C@@H](CCC(=O)N[C@@H](CCC(=O)N[C@@H](CCC(=O)NCCOCCOCC(=O)NCCOCCOCC(=O)NCCOCCOCC(=O)NCCOCCOCC(=O)NCCCC[C@H](NC(=O)CNC(=O)[C@H](CCC(=O)O)NC(=O)C(C)(C)NC(=O)C(C)(C)NC(=O)[C@@H](NC(=O)[C@H](CCCCNC(C)=O)NC(=O)[C@H](C)NC(=O)[C@H](CCCNC(=N)N)NC(=O)[C@@H](NC(=O)[C@H](CCCCN)NC(=O)[C@H](CCC(=O)O)NC(=O)[C@H](CCCNC(=N)N)NC(=O)CNC(=O)[C@H](CCC(=O)O)NC(=O)[C@H](CC(C)C)NC(C)=O)C(C)C)[C@@H](C)CC)C(=O)N[C@@H](CO)C(=O)N[C@H](C(=O)N[C@@H](Cc1ccccc1)C(=O)N[C@@H](CO)C(=O)N[C@@](C)(CCCCN)C(=O)N[C@@H](CCCNC(=N)N)C(=O)N[C@@H](C)C(=O)N[C@@H](CCCCNC(C)=O)C(N)=O)[C@@H](C)O)C(=O)O)C(=O)O)C(=O)O

What follows are binders tested against T1, RXFP1 receptor (endogenous, on OVCAR5 …) (assay: cell-based or functional assay).
In the case of Ac-LEGREKVR[Aib]K(Ac)I[Aib][Aib]EGK([TTDS-TTDS-TTDS-γGlu-γGlu-γGlu-Palmitoyl])STWS[Aib]RAK(Ac)-NH2 [peptide of SEQ ID NO: 82], the “EC50 (nM), OVCAR 5 cells (cAMP)” value is reported as 0.54 nM and the “EMax, OVCAR 5 cells (cAMP)” value is reported as 95%. In the case of Ac-LEGREKVRAK(Ac)I[Aib][Aib]EGK([TTDS-TTDS-TTDS-γGlu-γGlu-γGlu-Palmitoyl])SKWS[Aib]RKK(Ac)-NH2 [peptide of SEQ ID NO: 83], the “EC50 (nM), OVCAR 5 cells (cAMP)” value is reported as 0.25 nM and the “EMax, OVCAR 5 cells (cAMP)” value is reported as 94%. Ac-LEGREKVRAK(Ac)I[Aib]IEGK([TTDS-TTDS-TTDS-γGlu-γGlu-γGlu-Palmitoyl])STFS[αMeK]RAK(Ac)-NH2 [peptide of SEQ ID NO: 84] was tested, and the “EC50 (nM), OVCAR 5 cells (cAMP)” value was 0.1 nM and the “EMax, OVCAR 5 cells (cAMP)” value was 95%. B1 was tested, and the “EC50 (nM), OVCAR 5 cells (cAMP)” value was 1.86 nM and the “EMax, OVCAR 5 cells (cAMP)” value was 92%. Ac-LEGRERVR[Aib]K(Ac)I[Aib][Aib]EGK([TTDS-TTDS-TTDS-γGlu-γGlu-γGlu-Palmitoyl])STWS[Aib]RRK(Ac)-NH2 [peptide of SEQ ID NO: 85] was tested, and the “EC50 (nM), OVCAR 5 cells (cAMP)” value was 0.3 nM and the “EMax, OVCAR 5 cells (cAMP)” value was 92%. With Ac-[Aib]EGREKVRAK(Ac)I[Aib]IEGK([TTDS-TTDS-TTDS-γGlu-γGlu-γGlu-Palmitoyl])STFS[αMeK]RAK(Ac)-NH2 [peptide of SEQ ID NO: 86] the “EC50 (nM), OVCAR 5 cells (cAMP)” value was 0.3 nM and the “EMax, OVCAR 5 cells (cAMP)” value was 95%. In the case of Ac-LEGREKVRAK(Ac)I[Aib][Aib]EGK([TTDS-TTDS-TTDS-γGlu-γGlu-γGlu-Palmitoyl])STFSRRAK(Ac)-NH2 [peptide of SEQ ID NO: 87], the “EC50 (nM), OVCAR 5 cells (cAMP)” value is reported as 0.1 nM and the “EMax, OVCAR 5 cells (cAMP)” value is reported as 96%. In the case of Ac-LEGREKVRAK(Ac)I[Aib][Aib]EGK([TTDS-TTDS-TTDS-γGlu-γGlu-γGlu-Palmitoyl])STFS[hLys]RAK(Ac)-NH2 [peptide of SEQ ID NO: 88], the “EC50 (nM), OVCAR 5 cells (cAMP)” value is reported as 0.17 nM and the “EMax, OVCAR 5 cells (cAMP)” value is reported as 96%. Ac-LEGREKVRAK(Ac)I[Aib][Aib]EGK([TTDS-TTDS-TTDS-γGlu-γGlu-γGlu-Palmitoyl])ST[αMeF]SRRAK(Ac)-NH2 [peptide of SEQ ID NO: 89] was tested, and the “EC50 (nM), OVCAR 5 cells (cAMP)” value was 0.1 nM and the “EMax, OVCAR 5 cells (cAMP)” value was 97%. In the case of Ac-LEGREKVRAK(Ac)IA[Aib]EGK([TTDS-TTDS-TTDS-γGlu-γGlu-γGlu-Palmitoyl])STFS[αMeK]RAK(Ac)-NH2 [peptide of SEQ ID NO: 90], the “EC50 (nM), OVCAR 5 cells (cAMP)” value is reported as 0.14 nM and the “EMax, OVCAR 5 cells (cAMP)” value is reported as 97%. With Ac-LEGRERVRAK(Ac)I[Aib][Aib]EGK([TTDS-TTDS-TTDS-γGlu-γGlu-γGlu-Palmitoyl])ST[Phe(4-F)]S[Aib]RRK(Ac)-NH2 [peptide of SEQ ID NO: 91] the “EC50 (nM), OVCAR 5 cells (cAMP)” value was 0.09 nM and the “EMax, OVCAR 5 cells (cAMP)” value was 97%. For Ac-LEGRERVRAK(Ac)I[Aib][Aib]EGK([TTDS-TTDS-TTDS-γGlu-γGlu-γGlu-Palmitoyl])ST[Trp(5-F)]S[Aib]RRK(Ac)-NH2 [peptide of SEQ ID NO: 92], the “EC50 (nM), OVCAR 5 cells (cAMP)” value was 0.1 nM and the “EMax, OVCAR 5 cells (cAMP)” value was 99%. With Ac-LEGREKVRAK(Ac)I[Aib][Aib]EGK([TTDS-TTDS-TTDS-γGlu-γGlu-γGlu-Palmitoyl])STFTRRAK(Ac)-NH2 [peptide of SEQ ID NO: 93] the “EC50 (nM), OVCAR 5 cells (cAMP)” value was 0.77 nM and the “EMax, OVCAR 5 cells (cAMP)” value was 86%. In the case of Ac-LEGREKVRAK(Ac)I[Aib][Aib]EGK([TTDS-TTDS-TTDS-γGlu-γGlu-γGlu-Palmitoyl])STFVRRAK(Ac)-NH2 [peptide of SEQ ID NO: 94], the “EC50 (nM), OVCAR 5 cells (cAMP)” value is reported as 1.74 nM and the “EMax, OVCAR 5 cells (cAMP)” value is reported as 88%. With Ac-LEGREKVRAK(Ac)I[Aib][Aib]EGK([TTDS-TTDS-γGlu-γGlu-Palmitoyl])STFS[αMeK]RAK(Ac)-NH2 [peptide of SEQ ID NO: 9] the “EC50 (nM), OVCAR 5 cells (cAMP)” value was 0.7 nM and the “EMax, OVCAR 5 cells (cAMP)” value was 93%. For Ac-LEGREKVRAK(Ac)I[Aib][Aib]EGK([TTDS-TTDS-TTDS-γGlu-γGlu-γGlu-Myristoyl])STFS[αMeK]RAK(Ac)-NH2 [peptide of SEQ ID NO: 95], the “EC50 (nM), OVCAR 5 cells (cAMP)” value was 1.8 nM and the “EMax, OVCAR 5 cells (cAMP)” value was 91%. For Ac-LEGREKVRAK(Ac)I[Aib][Aib]EGK([TTDS-TTDS-TTDS-γGlu-γGlu-γGlu-Myristoyl])STFS[αMeK]RAK-NH2 [peptide of SEQ ID NO: 96], the “EC50 (nM), OVCAR 5 cells (cAMP)” value was 0.88 nM and the “EMax, OVCAR 5 cells (cAMP)” value was 92%. Ac-LEGREKVRAK(Ac)I[Aib][Aib]EGK([TTDS-TTDS-TTDS-γGlu-γGlu-γGlu-γGlu-Myristoyl])STFS[αMeK]RAK-NH2 [peptide of SEQ ID NO: 97] was tested, and the “EC50 (nM), OVCAR 5 cells (cAMP)” value was 0.29 nM and the “EMax, OVCAR 5 cells (cAMP)” value was 98%. With Ac-LEGREKVRAK(Ac)I[Aib][Aib]EGK([TTDS-TTDS-γGlu-γGlu-γGlu-γGlu-Palmitoyl])STFS[αMeK]RAK(Ac)-NH2 [peptide of SEQ ID NO: 10] the “EC50 (nM), OVCAR 5 cells (cAMP)” value was 0.79 nM and the “EMax, OVCAR 5 cells (cAMP)” value was 95%. Ac-LEGREKVRAK(Ac)I[Aib][Aib]EGK([TTDS-TTDS-TTDS-γGlu-γGlu-γGlu-Palmitoyl])STWS[αMeK]RAK(Ac)-NH2 [peptide of SEQ ID NO: 11] was tested, and the “EC50 (nM), OVCAR 5 cells (cAMP)” value was 0.83 nM and the “EMax, OVCAR 5 cells (cAMP)” value was 93%. For Ac-LEGREKVRA[Cit]I[Aib][Aib]EGK([TTDS-TTDS-TTDS-γGlu-γGlu-γGlu-Palmitoyl])STFS[αMeK]RAK(Ac)-NH2 [peptide of SEQ ID NO: 12], the “EC50 (nM), OVCAR 5 cells (cAMP)” value was 0.93 nM and the “EMax, OVCAR 5 cells (cAMP)” value was 90%. Ac-LEGREKVRAK(Ac)I[Aib][Aib]EGK([TTDS-TTDS-TTDS-γGlu-γGlu-γGlu-Palmitoyl])STFSKRAK(Ac)-NH2 [peptide of SEQ ID NO: 13] was tested, and the “EC50 (nM), OVCAR 5 cells (cAMP)” value was 2.12 nM and the “EMax, OVCAR 5 cells (cAMP)” value was 91%. For Ac-LEGREKVRAK(Ac)I[Aib][Aib]EGK([TTDS-TTDS-TTDS-γGlu-γGlu-γGlu-Palmitoyl])STF[dS]KRAK(Ac)-NH2 [peptide of SEQ ID NO: 14], the “EC50 (nM), OVCAR 5 cells (cAMP)” value was 3.2 nM and the “EMax, OVCAR 5 cells (cAMP)” value was 90%. With Ac-LEGREKVRAK(Ac)I[Aib][Aib]EGK([TTDS-TTDS-TTDS-γGlu-γGlu-γGlu-Palmitoyl])STF[Aib]KRAK(Ac)-NH2 [peptide of SEQ ID NO: 15] the “EC50 (nM), OVCAR 5 cells (cAMP)” value was 2.1 nM and the “EMax, OVCAR 5 cells (cAMP)” value was 85%. In the case of Ac-LEGREKVRAK(Ac)I[Aib][Aib]EGK([TTDS-TTDS-TTDS-γGlu-γGlu-γGlu-Palmitoyl])STFS[Aib]RAK(Ac)-NH2 [peptide of SEQ ID NO: 2], the “EC50 (nM), OVCAR 5 cells (cAMP)” value is reported as 2.4 nM and the “EMax, OVCAR 5 cells (cAMP)” value is reported as 99%. In the case of Ac-LEGREKVRAK(Ac)I[Aib][Aib]EGK([TTDS-TTDS-γGlu-γGlu-γGlu-Palmitoyl])STFS[dK]RAK(Ac)-NH2 [peptide of SEQ ID NO: 16], the “EC50 (nM), OVCAR 5 cells (cAMP)” value is reported as 6.8 nM and the “EMax, OVCAR 5 cells (cAMP)” value is reported as 88%. Ac-LEGREKVRAK(Ac)I[Aib][Aib]EGK([TTDS-TTDS-γGlu-γGlu-γGlu-Palmitoyl])STWS[dK]RAK(Ac)-NH2 [peptide of SEQ ID NO: 17] was tested, and the “EC50 (nM), OVCAR 5 cells (cAMP)” value was 4.6 nM and the “EMax, OVCAR 5 cells (cAMP)” value was 91%.
